± gives the uncertainty stated by the source.
B1: Far upstream element-binding protein 1, residues 98 to 169; numbered along this chain, Q96AE4 (parent)
chain: RSVMTEEYKVPDGMVGFIIGRGGEQISRIQQESGCKIQIAPDSGGLPERSCMLTGTPESVQSAKRLLDQIVE

Variants of: B1
Assay: abundance fitness (aPCA) (normalised: wild type 0, dead -1); higher = more abundant; growth selection in yeast, the domain comes from the species named
Details: Homo sapiens

Abundance fitness of substitutions, site by site:
P11: R -0.074 ± 0.023
G13: Y 0.012 ± 0.044, R -0.007 ± 0.023, F -0.123 ± 0.045, V -0.218 ± 0.027, L -0.079 ± 0.026, Q 0.033 ± 0.033, I -0.034 ± 0.047, M -0.034 ± 0.036, W -0.038 ± 0.029, T 0.031 ± 0.031, H -0.055 ± 0.04, D 0 ± 0.034, S 0.025 ± 0.026, P -0.019 ± 0.03, E 0.041 ± 0.032, A -0.01 ± 0.026, K 0 ± 0.034
V3: D -0.042 ± 0.036, L -0.047 ± 0.029, G -0.086 ± 0.023, K 0.03 ± 0.035, Q -0.004 ± 0.034, H -0.043 ± 0.041, F -0.073 ± 0.049, P -0.092 ± 0.033, N -0.001 ± 0.043, M 0.017 ± 0.036, T -0.005 ± 0.031, A -0.058 ± 0.025, I 0.06 ± 0.037, Y 0.003 ± 0.041, E 0.004 ± 0.029, S -0.087 ± 0.027, W -0.084 ± 0.03, C -0.048 ± 0.033
E6: Y -0.053 ± 0.045, F -0.081 ± 0.039, R -0.02 ± 0.023, L -0.033 ± 0.026, G -0.092 ± 0.023, D -0.104 ± 0.04, Q 0.054 ± 0.032, T 0.029 ± 0.03, P -0.625 ± 0.039, K -0.01 ± 0.032, C -0.085 ± 0.037, I -0.07 ± 0.05, H -0.081 ± 0.046, W -0.048 ± 0.027, A -0.14 ± 0.027, N -0.177 ± 0.048, M -0.01 ± 0.034
Y8: G -0.608 ± 0.03, M -0.104 ± 0.037, P -0.798 ± 0.053, C -0.297 ± 0.054, A -0.221 ± 0.03, H 0.024 ± 0.045, I -0.035 ± 0.044, R -0.216 ± 0.026, E -0.535 ± 0.039, L -0.059 ± 0.03, W -0.059 ± 0.033, T -0.147 ± 0.037, D -0.688 ± 0.057, N -0.426 ± 0.049, K -0.127 ± 0.039, F -0.013 ± 0.047, Q -0.2 ± 0.036, V -0.069 ± 0.029
K9: I -0.079 ± 0.035, T -0.091 ± 0.027, N -0.156 ± 0.043, H -0.093 ± 0.041, E -0.216 ± 0.032, P -0.112 ± 0.028, S -0.108 ± 0.024, F -0.033 ± 0.033, V -0.098 ± 0.023, G -0.195 ± 0.023, M -0.043 ± 0.031, R -0.053 ± 0.022, D -0.181 ± 0.032, L -0.06 ± 0.023, C -0.1 ± 0.031, Q -0.033 ± 0.031, A -0.114 ± 0.024, Y -0.084 ± 0.037, W -0.084 ± 0.026
V15: T -0.126 ± 0.032, F 0.011 ± 0.044, S -0.059 ± 0.028, N -0.213 ± 0.049, W -0.084 ± 0.029, L -0.046 ± 0.026, G -0.136 ± 0.027, R -0.206 ± 0.024, M -0.027 ± 0.036, D -0.158 ± 0.044, C -0.124 ± 0.039, Y -0.144 ± 0.047, Q -0.08 ± 0.035, P -0.146 ± 0.032, I -0.074 ± 0.041, H -0.135 ± 0.044
V10: G -0.304 ± 0.024, F -0.091 ± 0.038, W -0.193 ± 0.03, P -0.265 ± 0.032, C -0.078 ± 0.034, R -0.491 ± 0.026, Q -0.581 ± 0.037, Y -0.198 ± 0.039, N -0.48 ± 0.055, D -0.389 ± 0.038, E -0.628 ± 0.04, K -0.584 ± 0.05, L -0.018 ± 0.025, M 0.008 ± 0.034, H -0.502 ± 0.046, S -0.382 ± 0.028
I18: F -0.036 ± 0.054, D -0.175 ± 0.037, N -0.236 ± 0.055, K -0.264 ± 0.034, E -0.147 ± 0.029, V -0.031 ± 0.025, Q -0.243 ± 0.035, P -0.266 ± 0.031, C -0.145 ± 0.041, M -0.049 ± 0.033, T -0.175 ± 0.028, S -0.226 ± 0.028, L -0.012 ± 0.027, G -0.206 ± 0.023, W -0.108 ± 0.029, R -0.324 ± 0.024, Y -0.21 ± 0.046, A -0.189 ± 0.026
D12: E 0.001 ± 0.03, G -0.049 ± 0.026, R -0.028 ± 0.023, W -0.164 ± 0.032, K -0.068 ± 0.036, M -0.067 ± 0.037, F -0.066 ± 0.047, I -0.038 ± 0.051, N 0.032 ± 0.041, S -0.045 ± 0.026, Q -0.027 ± 0.031, C -0.057 ± 0.038, Y -0.045 ± 0.045, L -0.064 ± 0.026, P -0.009 ± 0.028, H -0.038 ± 0.047, V -0.041 ± 0.027, A 0.019 ± 0.026
G20: A -0.066 ± 0.026, C -0.167 ± 0.038, M -0.174 ± 0.037, I -0.284 ± 0.051, D -0.063 ± 0.036, E 0.002 ± 0.033, H -0.08 ± 0.048, K -0.14 ± 0.037, F -0.176 ± 0.052
